Experimental findings from article PMC10764318 (Nature Communications, 2024) are described below.

The chains are these.
B1: WRAIR-5004 (antibody, V domains shown)
VH: QVQLVQSGAEIKQPGASVKLSCKASGYTFTTYYIHWVRQAPGQGLEWIGLISPYNGNRGYAQNFQGRVTITTDTSTSTGYMELSSLRSEDTAVYYCTRERVVAAAGYFDYWGQGVLVTVSS
VL: SYELTQPPSVSVSPGQTARITCGGDNIGSKNVQWYQQKPAQAPVLVIYDDSERPSGIPERFSGSNSGNTATLTISGVEAGDEAGYSCQVWDSSPDHYIFGAGTRLTVLG
notes: also called CoV_5004; source: Expi293F, transfected, purified (Protein A magnetic beads)
B2: WRAIR-5011 (antibody, V domains shown)
V domain 1: EVQLVQSGAEIKQPGASVKLSCKASGYTFTSYYIHWVRQAPGQGLEWIGLISPYNGNRAYAQNFQGRVTITTDTSTSTVYMELSSLKSEDTAVYYCAGEEYSNYGYFDLWGPGTPITISS
V domain 2: SYELTQPPSVSVSPGQTARITCGGDNIGSKNVQWYQQKPAQAPVLVIYDDSERPSGIPERFSGSNSGNTATLTISGVEAGDEADYYCQVWDSSGDHYIFGAGTRLTVLG
notes: also called CoV_5011; source: Expi293F, transfected, purified (Protein A magnetic beads)
B3: WRAIR-5005 (antibody, V domains shown)
VH: QVQLQESGPGLVKPSETLSLTCAVSGSSVNSGYGWTWLRQPPGKGLEWIGYIGGGSGSTIYNPSLKSRLTISKDTSKNQFSLKLSSVTAADTAVYYCASLDYGTTYSWFDVWGPGVLVTVSS
VL: SYELTQPRSVSVSPGQMARITCGGDNIGSKSVQWYQHKPPQAPVLVIYADSERPSGIPERFSGSNSGNTATLTISGVEAGDEADYYCQVWDSSSDVLFGGGTRLTVLG
notes: also called CoV_5005; source: Expi293F, transfected, purified (Protein A magnetic beads)
B4: WRAIR-5021 (antibody, V domains shown)
VH: QVQLQESGPGLVKPSETLSLTCAVSGYSISSGYYWGWIRQPPGKGLEYIGYFSGTTGSTYYNPSLKSRVTISKDTSKNQFSLKLNSVTAADTAVYYCARQPPRFDVWGPGVLVTVST
VL: DIQMTQSPSSLSASVGDTVTITCRASQGISNFLNWYQQKPGKAPKLLIYDASRLESGVPSRFSGSGSGTEFTLTISSLQPEDFATYHCLQYDSDPFTFGPGTKLDIKR
notes: also called CoV_5021; source: Expi293F, transfected, purified (Protein A magnetic beads)
B5: WRAIR-5020 (antibody, V domains shown)
VH: QVQLQESGPGLVKPSETLSLTCAVSGASISSYWWGWIRQPPGKGLEWIGRISGSSGSTSYNPSLKSRVTISTDTSKNQFSLKLSSVTAADTAVYYCASRITIFGLLRSYWGQGVLVTVSS
VL: EIVMTQSPATLSLSPRERATLSCRASQSVSSNLAWYQQKPGQAPRLLIYYASNRATGIPDRFSGSGSGTDFTLTISSLEPEDVGLYYCQQESNWPWTFGQGTKVEIKR
notes: also called CoV_5020; source: Expi293F, transfected, purified (Protein A magnetic beads)
B6: WRAIR-5001 (antibody, V domains shown)
VH: QVQLVQSGAEVKKPGASVKLSCKASGYTFTSYSINWVRQAPGQGLEWMGWVNPSNGVTVYAQKFQGRVTMTRDTSTSTAYMELSSLRFEDTAVYYCARERDQLVVYFDHWGQGALVTVSS
VL: SYELTQPRSVSVSPGQTARITCGGDNIASKNVHWYQQKLAQAPVLVIYYDSDRPSGIPERFSGSNSGNTATLTISGVEAGDEADYYCQVWDSYSGHHVLFGGGTRLTVLG
notes: also called CoV_5001; source: Expi293F, transfected, purified (Protein A magnetic beads)
B7: LY-CoV-555 (antibody, V domains shown)
VH: QVQLVQSGAEVKKPGSSVKVSCKASGGTFSNYAISWVRQAPGQGLEWMGRIIPILGIANYAQKFQGRVTITADKSTSTAYMELSSLRSEDTAVYYCARGYYEARHYYYYYAMDVWGQGTAVTVSS
VL: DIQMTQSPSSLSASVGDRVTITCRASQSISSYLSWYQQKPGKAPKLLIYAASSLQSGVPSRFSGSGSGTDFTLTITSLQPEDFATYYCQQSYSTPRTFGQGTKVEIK
notes: control antibody, IgG1; also called antigen site E (Class II); source: Expi293F, purified; expressed as human IgG1
B8: CB6 (antibody, V domains shown)
VH: EVQLVESGGGLVQPGGSLRLSCAASGFTVSSNYMSWVRQAPGKGLEWVSVIYSGGSTFYADSVKGRFTISRDNSMNTLFLQMNSLRAEDTAVYYCARVLPMYGDYLDYWGQGTLVTVSS
VL: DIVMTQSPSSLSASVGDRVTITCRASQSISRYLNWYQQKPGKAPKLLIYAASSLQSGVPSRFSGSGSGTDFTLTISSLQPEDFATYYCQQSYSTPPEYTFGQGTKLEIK
notes: control antibody, IgG1; also called antigen site B (Class I); source: Expi293F, purified; expressed as human IgG1
B9: A19-46.1 (antibody, V domains shown)
VH: QVQLVESGGGVVQPGRSLRLSCAASGFTLSSYGMHWVRQAPGKGLEWVAVISYDGSNKYYVDSVKGRFTISRDNSKNTLYLQMNSLRAEDTAVYYCARGWAYWELLPDYYYGMDVWGQGTTVTVSS
VL: QTVVTQEPSFSVSPGGTVTLTCGLSSGSVSTAYFPSWYQQTPGQAPRTLIYGTNTRSSGVPDRFSGSILGNKAALTITGAQADDESDYYCVLYMGRGIVVFGGGTKLTVL
notes: control antibody, IgG1; also called antigen site D (Class II); source: Expi293F, purified; expressed as human IgG1
B10: A19-61.1 (antibody, V domains shown)
VH: QVQLVESGGGVVQPGRSLRLSCAASGFTFSSYAFHWVRQAPGKGLEWVAVISYDGSNQYYADSVKGRFTISRDNSKNTLYLQMNSLRADDTAVYYCARDLAIAVAGTWHYYNGMDVWGQGTTVTVSS
VL: DIQMTQSPSSVSASVGDRVIITCRASQGISSWLAWYQQKPGKAPKVLIYDASSLQSGVPSRFSGSGYGTDFTLTISSLQPEDSATYYCQQAKSFPITFGQGTRLEIK
notes: control antibody, IgG1; also called antigen site F (Class III); source: Expi293F, purified; expressed as human IgG1

One assay has as its target T1, SARS-CoV-2 WA-1 RBD (SARS-CoV-2, UniProt P0DTC2 331-527).
T1 construct: source: Expi293F, purified (Ni-NTA)
As to the kind of experiment: BLI. The settings on record: both partners purified.
As usually defined, the Kd is a measure of binding affinity in units of concentration. A low value points to tighter binding. Broadly, the koff is a measure of how fast the partners let go of each other. Lower therefore signals a long-lived complex. As a reminder, the kon is the rate constant with which the complex forms. Low readings indicate slower complex formation, high ones faster complex formation. The molecule B1 showed a Kd of 0.72 ± 0.015 nM, a dissociation rate constant (koff) of 0.000154 s⁻¹ and an on-rate constant (kon) of 199000 M⁻¹ s⁻¹.
In the case of B2, the dissociation constant (Kd) was determined as 0.69 ± 0.013 nM, the off-rate constant (koff) was 0.000147 s⁻¹ and the kon amounted to 215000 M⁻¹ s⁻¹.
Molecule B3 registered a dissociation constant (Kd) of 1.14 ± 0.013 nM, a koff of 0.000238 s⁻¹ and a kon of 209000 M⁻¹ s⁻¹.
As to B4, the dissociation constant (Kd) was determined as 1.09 ± 0.007 nM, the koff came out at 0.000353 s⁻¹ and the kon was 325000 M⁻¹ s⁻¹.
The like results for B5 were, in that order, 13 ± 0.1 nM, 0.00273 s⁻¹ and 210000 M⁻¹ s⁻¹.
In the case of B6, the dissociation rate constant (koff) stood at 0.000119 s⁻¹ and the association rate constant (kon) came to 209000 M⁻¹ s⁻¹.

The next assay deals with T2, SARS-CoV-2 RBD (318-514), Avi-tagged, biotinylated (SARS-CoV-2, UniProt P0DTC2, biotin (BirA biotinylation kit)).
T2 construct: source: Expi293F, purified (Ni-NTA); biotinylated with the BirA kit
The assay is described as follows: BLI. The note with it: both partners purified.
As for B7, the binding result is given as “binds”.
As for B8, the binding result is “binds”.
Still for that read-out and setting: with B9 the entry was “binds”.
As to B10, the binding result was “binds”.
